Consider 1 molecule from US20250255972A1, “METHOD OF TREATING UVEITIS WITH MULTIVALENT PROTEIN-HYALURONIC ACID POLYMER CONJUGATE” (Valitor, Inc., priority 2022, published 2025).

A word on the Kd: it is the constant that tells how readily two partners part at equilibrium. A low value points to higher affinity.

For the test, the target named is T1, Human IL-1β, Fc tagged (Acro Biosystems ILA-H525c) (human, UniProt P01584 117-269).
T1 construct: Bought BLI ligand, loaded on anti-human Fc probes; also called BLI ligand; not shown: Fc tag
The test is described as follows: BLI (Gator), Fc-tagged IL-1β on anti-human Fc probes, conjugate as analyte, 1:1 global fit.

B1: (SEQ ID NO:106)+HyA (850 kDa) conjugate #9, valency 15 (other)
scFv: EIVMTQSPSTLSASVGDRVIITCQASQSIDNWLSWYQQKPGKAPKLLIYRASTLASGVPSRFSGSGSGAEFTLTISSLQPDDFATYYCQNTGGGVSIAFGQGTKLTVLGGGGGSGGGGSGGGGSGGGGSEVQLVESGGGLVQPGGSLRLSCTASGFSLSSAAMAWVRQAPGKGLEWVGIIYDSASTYYASWAKGRFTISRDTSKNTVYLQMNSLRAEDTAVYYCARERAIFSGDFVLWGQGTLVTVSSSPSTPPTPSPSTPPGGC
modifications: C-terminal cysteine thiol of the rigid peptide linker joined through the EMCH organic linker to hyaluronic acid
B1 gave a Kd of 0.353 nM.
